Test results taken from patent US20040266686A1 (Regeneron, published 2004).

B1: Flt1D2.Flk1D3.Fc?C1(a) (Fc fusion, human)
chain: GRPFVEMYSEIPEIIHMTEGRELVIPCRVTSPNITVTLKKFPLDTLIPDGKRIIWDSRKGFIISNATYKEIGLLTCEATVNGHLYKTNYLTHRQTNTIIDVVLSPSHGIELSVGEKLVLNCTARTELNVGIDFNWEYPSSKHQHKKLVNRDLKTQSGSEMKKFLSTLTIDGVTRSDQGLYTCAASSGLMTKKNSTFVRVHEKGPG
modifications: N-linked glycosylation: complete at Asn33, Asn193, Asn282; partial at Asn65 and Asn120 (peptide mapping numbering)
notes: domain: Ig domain 2;domain: Ig domain 3; Made in CHO cells, transiently or stably; also called R1R2; not shown: Fc?C1(a) portion
B2: Flt1D2.VEGFR3D3.Fc?C1(a) (Fc fusion, not shown: a dimerising Fc or GST)
chain: GRPFVEMYSEIPEIIHMTEGRELVIPCRVTSPNITVTLKKFPLDTLIPDGKRIIWDSRKGFIISNATYKEIGLLTCEATVNGHLYKTNYLTHRQTNTIIDIQLLPRKSLELLVGEKLVLNCTVWAEFNSGVTFDWDYPGKQAERGKWVPERRSQQTHTELSSILTIHNVSQHDLGSYVCKANNGIQRFRESTEVIVHENGPG
B3: Flt1(1-3)-Fc (Fc fusion, human, UniProt P17948 27-331, looked up, not shown: a dimerising Fc or GST)
chain: SKLKDPELSLKGTQHIMQAGQTLHLQCRGEAAHKWSLPEMVSKESERLSITKSACGRNGKQFCSTLTLNTAQANHTGFYSCKYLAVPTSKKKETESAIYIFISDTGRPFVEMYSEIPEIIHMTEGRELVIPCRVTSPNITVTLKKFPLDTLIPDGKRIIWDSRKGFIISNATYKEIGLLTCEATVNGHLYKTNYLTHRQTNTIIDVQISTPRPVKLLRGHTLVLNCTATTPLNTRVQMTWSYPDEKNKRASVRRRIDQSNSHANIFYSVLTIDKMQNKDKGLYTCRVRSGPSFKSVNTSVHIYDK

What was measured:
[1] = molecular target: T1, human VEGF165 (human, UniProt P15692-4 27-191); experiment: size exclusion chromatography (Superose 6), complex purified, dissociated in 6M guanidine hydrochloride, components quantified
T1 construct: also called Human recombinant VEGF165
T1 sequence (P15692 other isoform, or with tags, fused parts or gaps limits assumed): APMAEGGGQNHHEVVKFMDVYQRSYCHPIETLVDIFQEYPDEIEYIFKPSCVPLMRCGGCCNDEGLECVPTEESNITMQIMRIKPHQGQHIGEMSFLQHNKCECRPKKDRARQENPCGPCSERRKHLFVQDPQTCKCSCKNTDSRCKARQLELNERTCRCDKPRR
Description: (b) Size Exclusion Chromatography. […] The receptor-ligand complex was then incubated in a buffer containing 6M guanidine hydrochloride in order to dissociate it into its component proteins.

[2] = molecular target: T1, human VEGF165; experiment: cell-based or functional assay
[3] = molecular target: T1, human VEGF165; experiment: size exclusion chromatography with on-line light scattering
Description: (a) Size Exclusion Chromatography (SEC) with On-Line Light Scattering. Size exclusion chromatography column with a MiniDawn on-line light scattering detector (Wyatt Technology, Santa Barbara, Calif.) and refractive index (R1) detectors (Shimadzu, Kyoto, Japan) was used to determine the molecular weight (MW) of the receptor-ligand complex. Samples were injected onto a Superose 12 HR 10/30 column (Pharmacia) equilibrated in PBS buffer and eluted with the same buffer at flow rate 0.5 ml/min. at room temperature. […] MW was calculated from LS and R1 signals. The same procedure was used to determine MW of the individual components of the receptor-ligand complex.

[4] = molecular target: T1, human VEGF165; experiment: size exclusion chromatography under dissociative conditions (6M GuHCl), standard curves
Description: (a) Size Exclusion Chromatography (SEC) under native conditions. […] The sample was eluted with the same buffer at flow rate 40 μl/min. at room temperature. […] Fractions eluted between 1.1 and 1.2 ml were combined and guanidinium hydrochloride (GuHCl) was added to a final concentration 4.5M to dissociate the complex.
(b) Size Exclusion Chromatography (SEC) under dissociative conditions. To separate the components of the receptor-ligand complex and to determine their molar ratio, 50 μl of dissociated complex as described supra was loaded onto a Superose 12 PC 3.2/30 equilibrated in 6M GuHCl and eluted with the same solution at a flow rate 40 μl/min. at room temperature.
The stoichiometry of the receptor-ligand complex was determined from the peak area or the peak height of the components. […] To obtain a standard curve, four different concentrations (0.04 mg/ml−0.3 mg/ml) of either component were injected onto a Pharmacia Superose 12 PC 3.2/30 column equilibrated in 6M guanidinium chloride and eluted with the same solution at flow rate 40 μl/min. at room temperature. The standard curve was obtained by plotting peak area or peak height vs protein concentration.

Binder | ratio of VEGF165 to receptor in the complex [1] | half maximal dose, VEGF165-induced cell proliferation (MG87 cells, MTS) [2] [nM] | stoichiometry of the complex [3] | molar ratio of VEGF165:receptor (from the peak area) [4] [mol/mol] | molar ratio of VEGF165:receptor (from the peak height) [4] [mol/mol]
B1 | 1 VEGF165:receptor | 0.8 | 1 receptor:VEGF165 | 1.16 | 1.1
B2 | – | 2 | – | – | –
B3 | – | 2 | – | – | –
